Test results as given in patent CN116496403A (ZEDA BIOMEDICAL CO LTD, dated 2023).
Values joined by “and” are separate entries in the source; they are usually repeats but may differ in a detail not shown here. Identical values can stand only once.

B1: 抗PDL1×IGF1R双特异性抗体 D31-5 (bispecific antibody, human IgG1, kappa)
heavy: not shown
light: EIVLTQSPDFLSVTPKEKVTITCRASQSIGTTIHWYQQKPDQSPKLLIKYASQSFSGVPSRFSGSGSGTDFTLTINSVEAEDAATYYCQQSNSWPLTFGAGTKLEIKRTVAAPSVFIFPPSDEQLKSGTASVVCLLNNFYPREAKVQWKVDNALQSGNSQESVTEQDSKDSTYSLSSTLTLSKADYEKHKVYACEVTHQGLSSPVTKSFNRGEC
notes: Anti-PDL1 IgG1 with A12 scFv1 (VL-L1-VH) at the C-terminus of each heavy chain
B2: 抗PDL1×IGF1R双特异性抗体 D31-6 (bispecific antibody, human IgG1, kappa)
heavy: not shown
light: B1 light
notes: Anti-PDL1 IgG1 with A12 scFv2 (VH-L1-VL) at the C-terminus of each heavy chain
B3: 抗PDL1×IGF1R双特异性抗体 D31-8 (bispecific antibody, human IgG1, kappa)
heavy: not shown
light: B1 light
notes: Anti-PDL1 IgG1 with A12 scFv1 at the N-terminus of each heavy chain
B4: 抗PDL1×IGF1R双特异性抗体 D31-7 (bispecific antibody, human IgG1, kappa)
heavy: not shown
light: B1 light
notes: Anti-PDL1 IgG1 with A12 scFv2 at the N-terminus of each heavy chain
B5: 抗PD-L1单抗(anti-PDL1 mAb) (antibody, human IgG1, kappa, V domains shown)
VH: QVQLQQSGGGLVKPSQSLSLTCTVSGFSLTSYGVHWVRQPPGKGLEWIGLIWSGGGTDYNPSLKSRLTISRDTSKNQVSFKISSLTAADTAVYYCARQLGLRAMDYWGQGTSVTVSS
VL: EIVLTQSPDFLSVTPKEKVTITCRASQSIGTTIHWYQQKPDQSPKLLIKYASQSFSGVPSRFSGSGSGTDFTLTINSVEAEDAATYYCQQSNSWPLTFGAGTKLEIKR
notes: also called 抗人PD-L1单抗
B6: 抗PDL1×IGF1R双特异性抗体 D31-1 (bispecific antibody, human IgG1, lambda)
heavy: not shown
light: SSELTQDPAVSVALGQTVRITCQGDSLRSYYATWYQQKPGQAPILVIYGENKRPSGIPDRFSGSSSGNTASLTITGAQAEDEADYYCKSRDGSGQHLVFGGGTKLTVLGQPKAAPSVTLFPPSSEELQANKATLVCLISDFYPGAVTVAWKADSSPVKAGVETTTPSKQSNNKYAASSYLSLTPEQWKSHRSYSCQVTHEGSTVEKTVAPAECS
notes: A12 IgG1 with anti-PDL1 scFv1 (VL-L1-VH) at the C-terminus of each heavy chain
B7: 抗PDL1×IGF1R双特异性抗体 D31-3 (bispecific antibody, human IgG1, lambda)
heavy: not shown
light: B6 light
notes: A12 IgG1 with anti-PDL1 scFv2 at the N-terminus of each heavy chain
B8: 抗PDL1×IGF1R双特异性抗体 D31-2 (bispecific antibody, human IgG1, lambda)
heavy: not shown
light: B6 light
notes: A12 IgG1 with anti-PDL1 scFv2 (VH-L1-VL) at the C-terminus of each heavy chain
B9: 抗PDL1×IGF1R双特异性抗体 D31-4 (bispecific antibody, human IgG1, lambda)
heavy: not shown
light: B6 light
notes: A12 IgG1 with anti-PDL1 scFv1 at the N-terminus of each heavy chain
B10: 抗IGF1R单抗 A12 (antibody, human IgG1, lambda, V domains shown)
VH: EVQLVQSGAEVKKPGSSVKVSCKASGGTFSSYAISWVRQAPGQGLEWMGGIIPIFGTANYAQKFQGRVTITADKSTSTAYMELSSLRSEDTAVYYCARAPLRFLEWSTQDHYYYYYMDVWGKGTTVTVSS
VL: SSELTQDPAVSVALGQTVRITCQGDSLRSYYATWYQQKPGQAPILVIYGENKRPSGIPDRFSGSSSGNTASLTITGAQAEDEADYYCKSRDGSGQHLVFGGGTKLTVLG
notes: also called anti-IGF1RmAb; 抗IGF1R抗体A12

Biological target: T1, PDL1-ECD-His蛋白 (UniProt Q9NZQ7 19-238)
T1 construct: extracellular domain; Expressed in HEK-293E cells; also called PD-L1抗原; PDL1抗原
Experiment: ELISA, PDL1-ECD-His coated, HRP goat anti-human Fc

T1 sequence (Q9NZQ7 other isoform, or with tags, fused parts or gaps): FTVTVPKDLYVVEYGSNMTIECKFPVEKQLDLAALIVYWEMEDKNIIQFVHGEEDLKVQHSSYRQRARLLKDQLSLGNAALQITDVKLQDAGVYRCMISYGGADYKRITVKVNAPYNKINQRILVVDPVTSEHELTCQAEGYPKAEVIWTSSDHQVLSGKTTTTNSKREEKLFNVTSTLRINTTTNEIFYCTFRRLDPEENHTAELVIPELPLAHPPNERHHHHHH

EC50	Binder
85.8 pM	B1
79 pM	B2
57.2 pM	B3
74.9 pM	B4
83.6 pM and 146 pM	B5
391 pM	B6
301 pM	B7
296 pM	B8
249 pM	B9

Biological target: IGF1R on BxPC3 cells (human, UniProt P08069 31-1367)
Experiment: cell-based or functional assay

Chain of IGF1R on BxPC3 cells (P08069 31-1367): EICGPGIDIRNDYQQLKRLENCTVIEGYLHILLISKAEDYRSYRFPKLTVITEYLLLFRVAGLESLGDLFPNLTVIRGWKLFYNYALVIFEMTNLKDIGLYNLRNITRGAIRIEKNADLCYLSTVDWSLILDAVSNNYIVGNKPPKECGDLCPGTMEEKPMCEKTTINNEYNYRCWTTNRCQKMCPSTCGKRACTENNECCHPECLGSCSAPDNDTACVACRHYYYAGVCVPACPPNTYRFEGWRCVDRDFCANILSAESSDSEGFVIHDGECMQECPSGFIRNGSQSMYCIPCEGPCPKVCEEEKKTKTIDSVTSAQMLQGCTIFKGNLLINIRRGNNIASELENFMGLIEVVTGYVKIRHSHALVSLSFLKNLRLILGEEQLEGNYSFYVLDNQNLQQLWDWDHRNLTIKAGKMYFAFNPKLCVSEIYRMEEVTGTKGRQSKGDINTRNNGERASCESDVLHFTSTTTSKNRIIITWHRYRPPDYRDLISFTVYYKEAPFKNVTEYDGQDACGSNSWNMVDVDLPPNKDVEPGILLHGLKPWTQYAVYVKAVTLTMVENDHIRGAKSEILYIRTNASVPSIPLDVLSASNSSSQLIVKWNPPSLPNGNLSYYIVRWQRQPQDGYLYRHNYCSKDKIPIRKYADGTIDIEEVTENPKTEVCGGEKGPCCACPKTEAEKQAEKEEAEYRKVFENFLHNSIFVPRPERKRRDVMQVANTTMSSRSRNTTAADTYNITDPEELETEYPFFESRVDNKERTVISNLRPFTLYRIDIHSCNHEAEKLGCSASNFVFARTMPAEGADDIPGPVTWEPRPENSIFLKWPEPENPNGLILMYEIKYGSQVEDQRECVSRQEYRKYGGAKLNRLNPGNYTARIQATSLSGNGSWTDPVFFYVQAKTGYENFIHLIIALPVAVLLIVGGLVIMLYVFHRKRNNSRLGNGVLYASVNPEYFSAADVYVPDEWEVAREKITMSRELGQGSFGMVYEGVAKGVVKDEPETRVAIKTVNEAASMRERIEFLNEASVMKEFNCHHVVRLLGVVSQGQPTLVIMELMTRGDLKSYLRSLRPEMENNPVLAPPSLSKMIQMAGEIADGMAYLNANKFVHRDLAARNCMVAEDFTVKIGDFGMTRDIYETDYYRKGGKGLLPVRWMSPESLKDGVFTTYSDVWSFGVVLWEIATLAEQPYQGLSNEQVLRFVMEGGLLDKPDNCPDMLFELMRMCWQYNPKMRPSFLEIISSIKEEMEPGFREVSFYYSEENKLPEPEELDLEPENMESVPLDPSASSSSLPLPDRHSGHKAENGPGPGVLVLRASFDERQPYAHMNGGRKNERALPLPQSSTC

IC50, inhibition of BxPC3 proliferation with IGF-1 100 ng/mL (CCK8)	Binder
39600 pM	B1
67000 pM	B2
5620 pM	B3
20500 pM	B4
6770 pM and 14000 pM	B10
1960 pM	B6
47700 pM	B7
2510 pM	B8
16500 pM	B9

Biological target: T2, IGF1R-ECD-His蛋白 (UniProt P08069 31-935)
T2 construct: extracellular domain; Expressed in HEK-293E cells; also called IGF1R抗原
Experiment: sandwich ELISA: PDL1-ECD-hFc coated, antibody, then IGF1R-ECD-His, HRP-anti-His

T2 sequence (P08069 31-935): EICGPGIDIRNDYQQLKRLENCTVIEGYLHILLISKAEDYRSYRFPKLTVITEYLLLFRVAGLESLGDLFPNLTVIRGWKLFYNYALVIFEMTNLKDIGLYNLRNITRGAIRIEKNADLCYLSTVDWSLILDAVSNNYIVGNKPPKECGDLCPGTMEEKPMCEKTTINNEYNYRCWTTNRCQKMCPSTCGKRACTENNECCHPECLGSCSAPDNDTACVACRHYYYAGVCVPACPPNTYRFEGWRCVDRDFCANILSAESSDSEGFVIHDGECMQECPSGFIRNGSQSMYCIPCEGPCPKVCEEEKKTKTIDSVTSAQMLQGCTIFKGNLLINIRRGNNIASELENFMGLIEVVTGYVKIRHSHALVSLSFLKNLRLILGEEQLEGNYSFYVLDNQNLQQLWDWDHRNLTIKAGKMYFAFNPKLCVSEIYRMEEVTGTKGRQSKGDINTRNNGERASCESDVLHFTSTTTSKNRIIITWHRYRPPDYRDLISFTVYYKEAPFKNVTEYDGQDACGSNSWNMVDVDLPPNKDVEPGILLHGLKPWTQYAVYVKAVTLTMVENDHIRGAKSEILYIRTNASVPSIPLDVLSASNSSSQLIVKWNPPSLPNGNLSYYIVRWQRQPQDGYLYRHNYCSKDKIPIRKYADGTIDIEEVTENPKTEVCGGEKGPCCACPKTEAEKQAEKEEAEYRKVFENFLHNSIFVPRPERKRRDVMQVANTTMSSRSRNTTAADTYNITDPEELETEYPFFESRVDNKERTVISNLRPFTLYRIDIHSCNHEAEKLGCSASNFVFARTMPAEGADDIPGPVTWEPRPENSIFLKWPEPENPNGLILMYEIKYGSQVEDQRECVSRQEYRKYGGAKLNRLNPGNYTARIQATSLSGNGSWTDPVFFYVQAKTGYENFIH

binding result	Binder
no binding (tested: 起始浓度为30nM)	B5

Biological target: T3, PDL1-ECD-hFc蛋白 (UniProt Q9NZQ7 19-238)
T3 construct: extracellular domain; PDL1-ECD-His with the C-terminal tag changed to hFc; also called PDL1抗原; not shown: hFc tag at the C-terminus in place of the His tag
Experiment: as above

T3 sequence (Q9NZQ7 19-238): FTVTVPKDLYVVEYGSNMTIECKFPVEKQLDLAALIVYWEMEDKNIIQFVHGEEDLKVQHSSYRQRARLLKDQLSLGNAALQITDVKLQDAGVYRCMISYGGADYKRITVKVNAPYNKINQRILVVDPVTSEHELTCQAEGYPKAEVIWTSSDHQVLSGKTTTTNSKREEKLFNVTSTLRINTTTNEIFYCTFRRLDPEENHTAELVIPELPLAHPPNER

binding result	Binder
no binding (tested: 起始浓度为30nM)	B10

Biological target: PD-L1 on PD-L1 aAPC/CHO-K1 cells (UniProt Q9NZQ7 19-290)
Experiment: cell-based or functional assay

Chain of PD-L1 on PD-L1 aAPC/CHO-K1 cells (Q9NZQ7 19-290): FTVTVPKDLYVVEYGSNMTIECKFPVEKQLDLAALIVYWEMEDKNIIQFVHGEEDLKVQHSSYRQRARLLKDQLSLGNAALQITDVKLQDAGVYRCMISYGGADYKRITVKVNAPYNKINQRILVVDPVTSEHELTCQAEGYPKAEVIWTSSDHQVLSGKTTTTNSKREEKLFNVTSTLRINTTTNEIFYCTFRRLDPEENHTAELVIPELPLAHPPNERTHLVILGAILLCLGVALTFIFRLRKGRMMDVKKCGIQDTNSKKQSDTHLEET

EC50, PD-1/PD-L1 Blockade Bioassay (luciferase reporter)	Binder
401 pM	B1
336 pM	B2
390 pM	B3
496 pM	B4
364 pM and 901 pM	B5
2980 pM	B6
1830 pM	B7
1750 pM	B8
1310 pM	B9

Biological target: T2, IGF1R-ECD-His蛋白
Experiment: ELISA, IGF1R-ECD-His coated, HRP-anti-hFc

EC50	Binder
137 pM	B1
96.1 pM	B2
46.5 pM	B3
64.8 pM	B4
157 pM and 67.6 pM	B10
193 pM	B6
315 pM	B7
185 pM	B8
249 pM	B9
